The chains are these.
B1: G1_neo2_40_1F (designed binder)
chain: STKKTQLLAEHALLDALMMLNLLPEPNEKLNRIITTMQSWIFTGKIDGDGAQELAKEVEELEQEHEKRGIDVEDYASNLKVILLELA
notes: also called G1_ne02_40_1F
B2: G2_neo2_40_1F_dsn36 (designed binder)
chain: PKKKIQLLAEHALLDALMILNIVKTNSQNAEEKLEDYASNVEVILEEIARLMESGDQKDEAEKAKRMKEWMKRIKTTASEDEQEEMANRIITLLQSWIFS
notes: E. coli, N-terminal 6xHis tag and thrombin site
B3: mouse interleukin-2 (mIL-2) (ligand, UniProt P04351 21-169, looked up)
chain: APTSSSTSSSTAEAQQQQQQQQQQQQHLEQLLMDLQELLSRMENYRNLKLPRMLTFKFYLPKQATELKDLQCLEDELGPLRHVLDLTQSKSFQLEDAENFISNIRVTVVKLKGSDNTFECQFDDESATVVDFLRRWIAFCQSIISTSPQ
notes: range 1-149; Baculovirus expression for SPR; also called MmIL-2; mouse IL-2

The first assay addresses T1, mouse IL-2 receptor β subunit (mIL-2Rβ) (mouse, UniProt P16297 27-240, biotin on the C-terminal biotin acceptor peptide).
T1 construct: extracellular domain; Biotinylated form for SPR; also called MmIL-2Rβ; murine IL-2Rβ
T1 sequence: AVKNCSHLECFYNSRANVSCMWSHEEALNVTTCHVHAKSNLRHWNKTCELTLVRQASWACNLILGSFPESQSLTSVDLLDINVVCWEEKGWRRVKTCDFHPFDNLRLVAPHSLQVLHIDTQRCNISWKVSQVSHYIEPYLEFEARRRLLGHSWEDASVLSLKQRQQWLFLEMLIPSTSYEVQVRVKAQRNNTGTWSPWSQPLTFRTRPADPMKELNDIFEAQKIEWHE
Kind of assay: SPR, equilibrium titration; biotinylated IL-2Rβ on streptavidin chip.
B1 returned a Kd of 486 nM.

On to B2, for which the dissociation constant Kd came to 2430 nM.

For B3, the Kd was found to be 1500 nM.

The target of a further assay is T2, human IL-2 receptor β subunit (hIL-2Rβ) (human, UniProt P14784 27-240, biotin on the C-terminal biotin acceptor peptide).
T2 construct: Biotinylated and immobilised on streptavidin; also called HsIL-2Rβ; human IL-2Rβ
T2 sequence: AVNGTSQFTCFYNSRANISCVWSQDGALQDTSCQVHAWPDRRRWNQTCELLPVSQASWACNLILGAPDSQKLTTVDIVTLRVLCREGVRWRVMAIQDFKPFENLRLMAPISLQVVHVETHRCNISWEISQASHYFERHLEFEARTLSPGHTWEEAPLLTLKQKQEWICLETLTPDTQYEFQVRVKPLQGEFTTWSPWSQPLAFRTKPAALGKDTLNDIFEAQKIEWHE
Described as above.
Molecule B1 came in with a Kd of 2.6 nM.

The molecule B2 displayed a Kd of 27.6 nM.

Regarding B3, the Kd is 4950 nM.

The target of a further assay is T3, human IL-2Rβγc on human cells (YT-1 NK cells) (human, UniProt P14784 27-551; P31785 23-369).
T3 sequence (looked up) 1: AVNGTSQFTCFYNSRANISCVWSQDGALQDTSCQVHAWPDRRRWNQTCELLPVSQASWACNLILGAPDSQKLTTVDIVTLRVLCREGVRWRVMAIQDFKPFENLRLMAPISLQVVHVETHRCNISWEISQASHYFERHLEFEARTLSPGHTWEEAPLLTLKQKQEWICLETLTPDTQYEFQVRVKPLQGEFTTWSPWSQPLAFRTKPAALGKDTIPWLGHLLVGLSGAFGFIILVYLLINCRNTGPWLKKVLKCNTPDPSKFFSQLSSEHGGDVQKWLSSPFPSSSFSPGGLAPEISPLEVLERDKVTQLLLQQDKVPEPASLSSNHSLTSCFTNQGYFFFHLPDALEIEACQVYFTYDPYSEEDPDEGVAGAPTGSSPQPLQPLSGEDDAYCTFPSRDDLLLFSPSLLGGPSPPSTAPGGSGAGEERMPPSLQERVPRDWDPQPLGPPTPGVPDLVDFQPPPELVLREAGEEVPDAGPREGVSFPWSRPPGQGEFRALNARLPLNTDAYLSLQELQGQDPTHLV
T3 sequence (looked up) 2: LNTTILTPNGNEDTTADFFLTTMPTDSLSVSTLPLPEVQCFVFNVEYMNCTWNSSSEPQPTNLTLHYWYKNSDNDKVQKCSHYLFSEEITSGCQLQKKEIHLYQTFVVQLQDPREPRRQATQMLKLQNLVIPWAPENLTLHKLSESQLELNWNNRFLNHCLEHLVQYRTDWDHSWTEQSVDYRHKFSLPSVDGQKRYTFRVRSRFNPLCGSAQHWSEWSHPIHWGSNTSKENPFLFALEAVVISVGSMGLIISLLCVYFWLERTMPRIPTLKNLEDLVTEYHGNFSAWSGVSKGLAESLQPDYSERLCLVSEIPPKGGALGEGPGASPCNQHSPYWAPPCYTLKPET
Kind of assay: cell-based or functional assay.
Take B1: the “EC50 (CD25-) pSTAT5p, human NK (YT, CD25-) cells” value (“EC50 (CD25-) pSTAT5p, human NK” below) was determined as 90 pM.

For the molecule B2, the “EC50 (CD25-) pSTAT5p, human NK” value is 0.12 nM.

Consider B3, for which the “EC50 (CD25-) pSTAT5p, human NK” value worked out at 39 nM.

For another assay, the target named is T4, mouse IL-2Rβγc on murine cells (CTLL-2 T cells, primary CD4+ T cells) (mouse, UniProt P16297 27-539; P34902 23-369).
T4 sequence (looked up) 1: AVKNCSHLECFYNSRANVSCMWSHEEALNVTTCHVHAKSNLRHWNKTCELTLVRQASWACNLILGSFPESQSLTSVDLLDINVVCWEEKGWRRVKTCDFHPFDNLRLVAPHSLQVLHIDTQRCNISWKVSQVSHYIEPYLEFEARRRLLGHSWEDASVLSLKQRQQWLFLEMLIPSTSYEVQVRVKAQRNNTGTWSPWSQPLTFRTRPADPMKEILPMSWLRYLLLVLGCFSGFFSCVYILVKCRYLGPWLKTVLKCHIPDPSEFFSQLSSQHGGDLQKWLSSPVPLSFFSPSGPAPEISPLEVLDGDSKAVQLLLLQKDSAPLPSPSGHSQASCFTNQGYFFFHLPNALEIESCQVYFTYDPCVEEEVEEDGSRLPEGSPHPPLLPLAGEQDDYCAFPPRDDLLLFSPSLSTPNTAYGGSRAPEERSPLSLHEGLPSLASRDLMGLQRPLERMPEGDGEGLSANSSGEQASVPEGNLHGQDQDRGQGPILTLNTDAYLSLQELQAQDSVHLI
T4 sequence (looked up) 2: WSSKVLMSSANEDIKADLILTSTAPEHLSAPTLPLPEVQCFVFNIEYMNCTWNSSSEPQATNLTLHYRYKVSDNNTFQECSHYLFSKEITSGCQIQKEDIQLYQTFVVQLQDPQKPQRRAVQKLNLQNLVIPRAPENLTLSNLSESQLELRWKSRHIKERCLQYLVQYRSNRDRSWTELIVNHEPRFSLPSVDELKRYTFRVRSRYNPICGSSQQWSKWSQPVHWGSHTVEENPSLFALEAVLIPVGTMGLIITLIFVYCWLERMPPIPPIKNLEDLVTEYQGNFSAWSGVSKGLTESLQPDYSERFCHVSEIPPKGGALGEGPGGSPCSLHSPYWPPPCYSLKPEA
Description: cell-based or functional assay.
As to B1, the “EC50 (CD25+) pSTAT5, murine T (CTLL-2, CD25+) cells” value (from here on “EC50 (CD25+) pSTAT5, murine T”) was 0.2 nM.

For B2, the “EC50 (CD25+) pSTAT5, murine T” value was found to be 1.36 nM.

Regarding B3, the “EC50 (CD25+) pSTAT5, murine T” value worked out at 3 pM.

Source of the values: patent US20200339648A1 (University of Washington, published 2020).
